Test results from patent US8541367B2, “Plasma anti-diabetic NUCB2 peptide (pladin) and uses thereof” (Landing Biotech, Inc., priority 2009, dated 2013).
“Also recorded” adds a separate entry of the source.

How the values were obtained:
db/db mice [1] = test: Food intake and body weight of db/db mice; assay type: in vivo, mouse; conditions: i.v. plasmin inhibitor to db/db (AMCA 15 mg/day once daily for three days)
db/db mice [2] = test: Serum nesfatin-1 / pladin in db/db after i.v. plasmin inhibitor (HPLC); assay type: in vivo, mouse; conditions: 30 minutes after i.v. injection
Procedure: Hypothalamus in acetic acid supplemented with protease inhibitor cocktail tablets (Roche, Indianapolis, Ind.) was homogenized, sonicated and heated at 95° C. for 15 minutes. The samples were then centrifuged at 13,200 rpm at 4° C. for 30 minutes. The supernatants were finally collected as their protein contents were determined by the Bradford assay (Thermo-Fisher Sci. Rockford, Ill.). Mouse serum was freshly prepared by drawing blood through ophthalmectomy. About […] hypothalamic total proteins or 25 μL serum were analyzed with Waters Delta 600E/2487/717 HPLC system using an analytical C18 reverse phase column (4.6×250 mm/5 μm, Hambon, Zhangjiagang, CN). Nesfatin-1 was eluted with a linear gradient from 20%-40% solvent B (solvent A: water with 0.1% trifluoroacetic acid, solvent B: acetonitrile with 0.1% trifluoroacetic acid) for 20 minutes at the flow rate of 1 ml/minute. The purified nesfatin-1 was used as the standard to determine the retention time and plot the standard curve. The fraction collected at the retention time was sent for the mass spectrometry analysis.
Mouse serum was freshly prepared by drawing blood through ophthalmectomy. The sera of plg^−/−lepr^−/− and db/db mice were directly analyzed with Waters Delta 600E/2487/717 HPLC System using a C18 reverse phase column (4.6×250 mm, 5 μm, Hambon, Zhangjiagang, CN) and eluted with a linear gradient from 20%-40% acetonitrile in 0.1% TFA for 20 minutes at the flow rate of 1 ml/minute (Enriori et al., 2007). Compared with db/db mice, the divergent fractions eluted in plg^−/−lepr^−/− mice were collected for the determination of molecular weight using the Applied Biosystems 4800 Proteomics Analyzer (Applied Biosystems). The MS spectra were acquired in the liner mode at a range of peptide mass from 3,000 to 20,000 Dalton.

db/db mice [3] = test: Blood glucose of db/db mice after injection of test substance; assay type: in vivo, mouse; conditions: for effect of pre-treatment on the anti-diabetic effect of nesfatin-1: GW9662 0.45 μg/g i.v. or Compound C 20 mg/kg i.p. before 100 ug Nesfatin-1 i.v., blood glucose in 6 hours; for effect of pre-injection on the anti-hyperglycemic effect of rPladin: GW9662 0.45 ug/g i.v., rosiglitazone or Compound C 20 ug/g i.p., then 10 nmol rPladin i.v., 3 hours
Procedure: GW9662, a PPAR-gamma irreversible inhibitor, was i.v. injected into the tail vein of db/db mice at the dose of 0.45 μg per gram body weight. After 30 minutes, 100 ug Nesfatin-1 was injected into the tail vein of db/db mice. Blood glucose was measured in 6 hours.
Compound C, a 5′-AMP-activated protein kinase (AMPK) specific inhibitor, was intraperitoneally injected to db/db mice at the dose of 20 mg per kg body weight. Subsequently, 100 ug Nesfatin-1 was injected into the tail vein of db/db mice. Blood glucose was measured in 6 hours.
Without anesthesia, mice were placed into a restricting tube. The testing substance such as nesfatin-1 or rPladin was i.v. injected via mice tail vein with a total volume of 150 μL. After that mice were returned to the cages with food and water available freely. In the i.p. injection experiment, mice without anesthesia were injected with the testing substances directly into the peritoneal with a total volume of 200 μL.
db/db mice of 16 to 18 weeks old were i.v. injected with 0.45 ug/g of GW9662 (Sigma, St. Louis, Mo.), i.p. injected with 20 ug/g rosiglitazone (Sigma, St. Louis, Mo.) or 20 ug/g Compound C (Sigma, St. Louis, Mo.), and then randomly assigned to receive the i.v. injection of 10 nmol rPladin or the same volume of saline as the control. Blood glucose was measured at 3 hours after the injection using the glucose meter (Roche, Indianapolis, Ind.).

db/db mice [4] = test: as above; assay type: in vivo, mouse; conditions: for anti-hyperglycemic effect (blood glucose): peripheral/i.v. injection, db/db, dose not stated; for active duration of anti-hyperglycemic effect in vivo: i.v. injection, hyperglycemic db/db mice
plasmin = plasmin (Homo sapiens, UniProt P00747); test: Incubation with plasmin in vitro (proteolysis); assay type: biochemical; conditions: incubated with plasmin in vitro
Source text: The recovery of hypothalamic nesfatin-1 in plg^−/−lepr^−/− was consistent to its normalization in food intake and body weight. Fasted mice always had less nesfatin-1 in hypothalamus than their freely feeding counterparties (FIG. 2b). Furthermore, plasminogen deficiency provided a unique approach to study the chronic effect of elevated nesfatin-1 in hyperphagic obese animals, which was impossible for the i.c.v. or i.p. administration due to the short half-time of nesfatin-1. Consequently, agrp and npy were found reduced in plg^−/−lepr^−/−, while pomc was elevated compared with plg^+/+lepr^−/− (FIG. 3), contradicting to the previous report that i.c.v. nesfatin-1 didn't alter the expression of pomc, npy and agrp. Consistent to the present finding, the same group reported the up-regulation of pomc by i.p. nesfatin-1 in NTS recently.
Carefully examining the amino acid sequence of pladin (SEQ ID NO: 23), it has several putative cleavage sites by plasmin (FIG. 11A).

Chain of plasmin (P00747 581-810 limits assumed, species assumed): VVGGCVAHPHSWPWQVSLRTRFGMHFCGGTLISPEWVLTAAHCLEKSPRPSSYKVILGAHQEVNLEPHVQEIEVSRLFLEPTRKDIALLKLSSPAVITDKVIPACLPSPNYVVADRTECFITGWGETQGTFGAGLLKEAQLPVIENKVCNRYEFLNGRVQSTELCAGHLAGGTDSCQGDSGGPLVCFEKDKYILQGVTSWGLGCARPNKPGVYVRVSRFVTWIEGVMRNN
Chain of plasmin (P00747 97-580 partner limits assumed, species assumed): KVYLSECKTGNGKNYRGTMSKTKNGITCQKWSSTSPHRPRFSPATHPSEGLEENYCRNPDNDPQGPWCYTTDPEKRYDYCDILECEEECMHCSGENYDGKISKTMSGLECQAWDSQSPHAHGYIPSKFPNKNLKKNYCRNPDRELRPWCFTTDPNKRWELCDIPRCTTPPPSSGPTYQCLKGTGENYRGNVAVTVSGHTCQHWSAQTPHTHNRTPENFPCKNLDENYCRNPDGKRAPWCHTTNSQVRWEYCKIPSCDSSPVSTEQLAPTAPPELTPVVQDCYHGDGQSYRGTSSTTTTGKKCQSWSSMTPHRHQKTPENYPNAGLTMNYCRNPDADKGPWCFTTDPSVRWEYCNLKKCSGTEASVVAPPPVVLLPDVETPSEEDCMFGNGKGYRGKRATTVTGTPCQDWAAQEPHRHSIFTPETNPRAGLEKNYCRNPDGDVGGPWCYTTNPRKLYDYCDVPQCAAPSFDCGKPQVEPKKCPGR

aprotinin
body weight (db/db mice [1]): reduction | food intake (db/db mice [1]): reduction | circulating (serum) nesfatin-1 (db/db mice [2]): increased

c1cc(-c2cnn3cc(-c4ccc(OCCN5CCCCC5)cc4)cnc23)ccn1 [Compound C]
effect of pre-treatment on the anti-diabetic effect of nesfatin-1 (db/db mice [3]): fully inhibited | effect of pre-injection on the anti-hyperglycemic effect of rPladin (db/db mice [3]): abolished; also recorded: prevented

O=C(Nc1ccccc1)c1cc([N+](=O)[O-])ccc1Cl [GW9662]
effect of pre-treatment on the anti-diabetic effect of nesfatin-1 (db/db mice [3]): fully inhibited | effect of pre-injection on the anti-hyperglycemic effect of rPladin (db/db mice [3]): abolished; also recorded: prevented

ADIEEIRSGR LSQELDLVSH (ADIEEIRSGRLSQELDLVSH; A synthetic peptide which was the C-terminal portion of pladin) [SEQ ID NO:22, synthetic 20 amino acids peptide, C-terminal portion of pladin]
anti-hyperglycemic activity, fold less than rPladin (db/db mice [4]; i.v., db/db mice): more than 3 fold | anti-hyperglycemic effect (blood glucose) (db/db mice [4]): anti-hyperglycemic

ANAEDIKSGKLSQELDFVSH (amino acids by MALDI-TOF/TOF with Trypsic Peptides) [SEQ ID NO:24, synthetic 20 amino acids peptide, a portion of NUCB1]
anti-hyperglycemic effect (blood glucose) (db/db mice [4]): anti-hyperglycemic

B1: TKVHNTEPVENARIEPPDTGLYYDEYAALETDPHFREKLQKADIEEIRSGRLSQELDLVSHKVR (protein)
chain: TKVHNTEPVENARIEPPDTGLYYDEYAALETDPHFREKLQKADIEEIRSGRLSQELDLVSHKVR
modifications: amino acid sequence of Mutant A92
active duration of anti-hyperglycemic effect in vivo (db/db mice [4]): > 12 h

B2: VPVDRAAPPQEDSQATETPDTGLYYHRYLQEVINVLETDGHFREKLQAANAEDIKSGKLSQELDFVSHNVRTKLDELK (protein)
chain: VPVDRAAPPQEDSQATETPDTGLYYHRYLQEVINVLETDGHFREKLQAANAEDIKSGKLSQELDFVSHNVRTKLDELK
modifications: amino acids recombinant peptide of NUCB1
notes: 78 amino acids recombinant peptide, N-terminal portion of NUCB1
molar anti-hyperglycemic activity, fold higher than rPladin or nesfatin-1 (db/db mice [4]; i.v., db/db mice, within 3 hours): at least 2 fold | active duration, fold less than rPladin or nesfatin-1 (db/db mice [4]; in vivo): at least 2 fold | anti-hyperglycemic effect (blood glucose) (db/db mice [4]): anti-hyperglycemic

B3: A4: pladin mutant A4 (Lys28→Ala) (protein)
peptide: TKVHNTEPVENARIEPPDTGLYYDEYLAQVIEVLETDPHFREKLQKADIEEIRSGRLSQELDLVSHKVR
active duration of anti-hyperglycemic effect in vivo (db/db mice [4]): 18 h | proteolysis by plasmin (plasmin): resistant to plasmin proteolysis

B4: TKVHNTEPVENARIEPPDTGLYYDEYAKAAAAALETDPHFREKLQKADIEEIRSGRLSQELDLVSHKVR (protein)
chain: TKVHNTEPVENARIEPPDTGLYYDEYAKAAAAALETDPHFREKLQKADIEEIRSGRLSQELDLVSHKVR
modifications: amino acid sequence of Mutant A90
active duration of anti-hyperglycemic effect in vivo (db/db mice [4]): > 24 h

B5: A5: pladin mutant A5 (Lys13→Ala as printed; Arg13 in sequence) (protein)
peptide: TKVHNTEPVENAAIEPPDTGLYYDEYLKQVIEVLETDPHFREKLQKADIEEIRSGRLSQELDLVSHKVR
active duration of anti-hyperglycemic effect in vivo (db/db mice [4]): 12 h | proteolysis by plasmin (plasmin): resistant to plasmin proteolysis

B6: acetylated rPladin: rPladin acetylated with N-acetylimidazole; three Tyr and three Lys residues modified (protein)
peptide: TKVHNTEPVENARIEPPDTGLYYDEYLKQVIEVLETDPHFREKLQKADIEEIRSGRLSQELDLVSHKVR
modifications: also: three Tyr and three Lys acetylated with N-acetylimidazole
notes: rPladin acetylated with N-acetylimidazole; three Tyr and three Lys residues modified
active duration of anti-hyperglycemic effect in vivo (db/db mice [4]): 12 h | anti-hyperglycemic activity compared with reference peptide (db/db mice [4]; i.v., db/db mice): unchanged | proteolysis by plasmin (plasmin): resistant to the proteolysis by plasmin

B7: TKVHNTEPVENARIEPPDTGLYYDEYSAAAALETDPHFREKLQKADIEEIRSGRLSQELDLVSHKVR (protein)
chain: TKVHNTEPVENARIEPPDTGLYYDEYSAAAALETDPHFREKLQKADIEEIRSGRLSQELDLVSHKVR
modifications: amino acid sequence of Mutant A91
active duration of anti-hyperglycemic effect in vivo (db/db mice [4]): > 24 h
